Assay results taken from patent publication US20250000946A1 (WUXI BIOLOGICS IRELAND, published 2025).
Read-outs that look alike come from different tables or passages of the source. Blank lines part the entries; values can stand above or below the binder they belong to.

Assays:
[1] = molecular target: T1, Human IL-2Rα/β/γ complex (high affinity IL-2 receptor) (human, UniProt P01589 22-272; P14784 27-551; P31785 23-369); assay: FACS, MJ20 cells; EC50 fold vs T2U0.E44-1
T1 construct: whole, on cells
T1 sequence (looked up) 1: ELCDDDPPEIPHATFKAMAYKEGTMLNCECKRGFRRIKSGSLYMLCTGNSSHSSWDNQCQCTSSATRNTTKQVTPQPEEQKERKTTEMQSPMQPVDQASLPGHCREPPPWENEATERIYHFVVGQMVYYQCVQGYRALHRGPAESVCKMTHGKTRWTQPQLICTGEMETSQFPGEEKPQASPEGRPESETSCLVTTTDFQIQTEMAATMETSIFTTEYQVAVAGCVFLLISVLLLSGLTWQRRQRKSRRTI
T1 sequence (looked up) 2: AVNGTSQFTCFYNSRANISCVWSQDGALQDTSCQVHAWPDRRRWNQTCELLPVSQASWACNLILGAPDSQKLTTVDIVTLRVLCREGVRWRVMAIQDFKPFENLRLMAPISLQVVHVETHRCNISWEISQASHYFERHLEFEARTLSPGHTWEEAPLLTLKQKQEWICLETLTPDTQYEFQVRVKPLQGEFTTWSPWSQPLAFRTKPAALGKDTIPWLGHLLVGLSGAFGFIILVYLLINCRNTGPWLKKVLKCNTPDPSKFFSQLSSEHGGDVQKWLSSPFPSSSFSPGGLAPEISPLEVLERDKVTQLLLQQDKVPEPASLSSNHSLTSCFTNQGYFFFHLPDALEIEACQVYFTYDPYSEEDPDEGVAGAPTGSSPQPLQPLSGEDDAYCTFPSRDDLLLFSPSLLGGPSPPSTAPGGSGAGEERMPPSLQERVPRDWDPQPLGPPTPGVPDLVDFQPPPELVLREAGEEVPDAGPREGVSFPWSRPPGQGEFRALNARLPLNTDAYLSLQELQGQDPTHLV
T1 sequence (looked up) 3: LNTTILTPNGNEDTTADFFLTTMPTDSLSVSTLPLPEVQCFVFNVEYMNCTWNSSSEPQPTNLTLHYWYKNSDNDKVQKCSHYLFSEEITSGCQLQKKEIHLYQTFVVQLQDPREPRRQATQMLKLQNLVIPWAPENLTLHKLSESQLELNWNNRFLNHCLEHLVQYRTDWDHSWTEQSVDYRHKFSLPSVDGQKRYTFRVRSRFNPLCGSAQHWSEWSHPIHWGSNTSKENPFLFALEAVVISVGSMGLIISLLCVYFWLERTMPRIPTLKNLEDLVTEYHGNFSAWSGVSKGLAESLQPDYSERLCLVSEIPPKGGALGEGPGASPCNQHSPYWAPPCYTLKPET
Protocol: (§1) Human cutaneous T cell lymphoma HH cells, malignant non-Hodgkin's lymphoma NK92 cells and cutaneous T cell lymphoma MJ20 cells were used for binding assay. They both constitutively express IL-2Rβ (CD122) and […] (CD132), and NK92 and MJ20 also expresses IL-2Rα (CD25). HH, NK92 and MJ20 cells were cultured following ATCC guidance, then transferred to a 96-plate for binding analysis. Cells were incubated with IL-2/Fc fusion proteins at the indicated concentrations for 30 min at 4° C. to avoid internalization. Binding was detected by 2nd antibody of PE-anti-human Fc at 4° C. for another 30 min. The median fluorescence intensity (MFI) on HH and NK92 cells was measured using FACS.
(§2) Affinity of IL-2 variants to IL-2Rα/β/γ supported the same results (FIG. 8 and Table 7). […] And T2U0.E44-26, T2U0.E44-27, T2U0.E44-29 and T2U0.E44-30 induced hundreds to thousands affinity reduction in Treg compared to T2U0.E44-1. Binding curves in MJ20 cells (IL-2Rα/β/γ) also achieved similar trend (FIG. 8b). As a result, the method of C-terminal truncation and substitution of 129 was available to achieve IL-2Rβγ attenuated IL-2 variants.

[2] = molecular target: T2, Human IL-2Rβ/γ (intermediate affinity IL-2 receptor) (human, UniProt P14784 27-551; P31785 23-369); assay: cell-based or functional assay
T2 sequence (looked up) 1: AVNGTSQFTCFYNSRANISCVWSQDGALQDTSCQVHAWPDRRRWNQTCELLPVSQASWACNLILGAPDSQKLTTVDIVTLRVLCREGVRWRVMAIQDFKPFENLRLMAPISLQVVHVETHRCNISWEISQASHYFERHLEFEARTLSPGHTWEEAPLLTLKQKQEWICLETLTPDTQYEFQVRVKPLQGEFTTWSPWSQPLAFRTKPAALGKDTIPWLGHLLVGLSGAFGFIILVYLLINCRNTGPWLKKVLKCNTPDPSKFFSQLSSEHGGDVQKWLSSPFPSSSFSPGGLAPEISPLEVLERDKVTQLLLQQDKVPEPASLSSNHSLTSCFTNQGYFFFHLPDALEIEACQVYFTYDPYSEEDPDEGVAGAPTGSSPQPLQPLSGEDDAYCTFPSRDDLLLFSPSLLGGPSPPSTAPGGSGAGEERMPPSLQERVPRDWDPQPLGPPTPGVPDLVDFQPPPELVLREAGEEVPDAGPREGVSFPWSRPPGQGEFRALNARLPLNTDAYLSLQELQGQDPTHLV
T2 sequence (looked up) 2: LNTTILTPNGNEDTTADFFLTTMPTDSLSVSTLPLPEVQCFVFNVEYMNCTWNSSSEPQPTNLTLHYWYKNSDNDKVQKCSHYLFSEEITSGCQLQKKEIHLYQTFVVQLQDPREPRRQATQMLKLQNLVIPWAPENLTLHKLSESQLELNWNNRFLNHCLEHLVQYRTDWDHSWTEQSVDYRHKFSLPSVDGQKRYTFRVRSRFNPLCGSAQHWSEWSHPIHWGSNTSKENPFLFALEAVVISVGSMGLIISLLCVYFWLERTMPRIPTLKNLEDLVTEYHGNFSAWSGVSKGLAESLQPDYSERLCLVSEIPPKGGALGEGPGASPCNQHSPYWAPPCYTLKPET

[3] = molecular target: T1, Human IL-2Rα/β/γ complex (high affinity …); assay: cell-based or functional assay
[4] = molecular target: T1, Human IL-2Rα/β/γ complex (high affinity …); assay: FACS, NK92 cells
Protocol: as §1

[5] = molecular target: T2, Human IL-2Rβ/γ (intermediate affinity …); assay: FACS, HH cells; EC50 fold vs T2U0.E44-1
Protocol: as §1

[6] = molecular target: T2, Human IL-2Rβ/γ (intermediate affinity …); assay: FACS, HH cells; EC50 fold vs T2U0.E44-1; remark: listed apart in the source
Protocol: as §1

[7] = molecular target: T1, Human IL-2Rα/β/γ complex (high affinity …); assay: FACS, MJ20 cells
Protocol: as §1, §2

[8] = molecular target: T2, Human IL-2Rβ/γ (intermediate affinity …); assay: FACS, HH cells
Protocol: as §1

[9] = molecular target: T2, Human IL-2Rβ/γ (intermediate affinity …); assay: FACS, HH cells; remark: listed apart in the source
Protocol: as §1

[10] = molecular target: T2, Human IL-2Rβ/γ (intermediate affinity …); assay: cell-based or functional assay; remark: listed apart in the source
[11] = molecular target: T1, Human IL-2Rα/β/γ complex (high affinity …); assay: cell-based or functional assay; remark: listed apart in the source
[12] = molecular target: T1, Human IL-2Rα/β/γ complex (high affinity …); assay: FACS, NK92 cells; EC50 fold vs T2U0.E44-1
Protocol: as §1

[13] = molecular target: T2, Human IL-2Rβ/γ (intermediate affinity …); assay: cell-based or functional assay; remark: listed apart in the source
[14] = molecular target: T1, Human IL-2Rα/β/γ complex (high affinity …); assay: cell-based or functional assay; remark: listed apart in the source
[15] = molecular target: T1, Human IL-2Rα/β/γ complex (high affinity …); assay: FACS, MJ20 cells; remark: listed apart in the source
Protocol: as §1

[16] = molecular target: T1, Human IL-2Rα/β/γ complex (high affinity …); assay: FACS, MJ20 cells; EC50 fold vs T2U0.E44-1; remark: listed apart in the source
Protocol: as §1

Affinity reduction [1]: 4 fold
Potency in human CD8+ T EC50 [2]: 360 nM
Potency reduction (CD8+ T) [2]: 18 fold
Potency in human Treg EC50 [3]: 0.032 nM
Potency reduction (Treg) [3]: 12.6 fold
EC50 [4]: 13.7 nM
Affinity reduction [5]: 9.9 fold
Affinity reduction [6]: 14.1 fold
EC50 [7]: 56.6 nM
EC50 [8]: 437 nM
EC50 [9]: 533 nM
Potency in human CD8+ T EC50 [10]: 175 nM
Potency reduction (CD8+ T) [10]: 18.3 fold
Potency in human Treg EC50 [11]: 1.51 nM
Potency reduction (Treg) [11]: 58.4 fold
Affinity reduction [12]: 2.48 fold
B1: W3XX115-T2U0.E44-6.uIgG4V1 (Fc fusion)
chain: APTSSSTKKTQLQLEHLLLDLQMILNGINNYKNPKLTRMLTFKFYMPKKATELKHLQCLEEELKPLEEVLNLAQSKNFHLRPRDLISNINVIVLELKGSETTFMCEYADETATIVEFLNRWITFCQSIIESKYGPPCPPCPAPEFLGGPSVFLFPPKPKDTLMISRTPEVTCVVVDVSQEDPEVQFNWYVDGVEVHNAKTKPREEQFNSTYRVVSVLTVLHQDWLNGKEYKCKVSNKGLPSSIEKTISKAKGQPREPQVYTLPPCQEEMTKNQVSLWCLVKGFYPSDIAVEWESNGQPENNYKTTPPVLDSDGSFFLYSRLTVDKSRWQEGNVFSCSVMHEALHNHYTQKSLSLSLG
heavy: EIQLQQSGPELVKPGASVKVSCKASGYSFTDYNMYWVKQSHGESLEWIGYIDPYNGGTRYNQKFKGKATLTVDKSSSTAFMHLNSLTSEDSAVYYCARNGHWDGAWFAYWGQGTLVTVSAASTKGPSVFPLAPCSRSTSESTAALGCLVKDYFPEPVTVSWNSGALTSGVHTFPAVLQSSGLYSLSSVVTVPSSSLGTKTYTCNVDHKPSNTKVDKRVESKYGPPCPPCPAPEFLGGPSVFLFPPKPKDTLMISRTPEVTCVVVDVSQEDPEVQFNWYVDGVEVHNAKTKPREEQFNSTYRVVSVLTVLHQDWLNGKEYKCKVSNKGLPSSIEKTISKAKGQPREPQVCTLPPSQEEMTKNQVSLSCAVKGFYPSDIAVEWESNGQPENNYKTTPPVLDSDGSFFLVSRLTVDKSRWQEGNVFSCSVMHEALHNHYTQKSLSLSLG
light: DIQMNQSPSSLSASLGDTITITCHASQNINVWLSWYQQKPGNIPKLLIYKASNLHTGVPSRFSGSRSGTGFTLTISSLQPEDIATYYCHQGQSYPFTFGSGTKLEIKRTVAAPSVFIFPPSDEQLKSGTASVVCLLNNFYPREAKVQWKVDNALQSGNSQESVTEQDSKDSTYSLSSTLTLSKADYEKHKVYACEVTHQGLSSPVTKSFNRGEC
notes: IL-2 with C-terminal 4 aa (STLT) deleted; E44 format, IgG4

Potency in human CD8+ T EC50 [13]: ~17.6 nM
Potency in human Treg EC50 [14]: 8 nM
Potency reduction (Treg) [14]: 4060 fold
Affinity reduction [6]: 190000 fold
EC50 [15]: 87.7 nM
Affinity reduction [16]: 2.1 fold
B2: W3XX115-T2U0.E44-37.uIgG4V322 (Fc fusion)
chain: APTSSSTKKTQLQLEHLLLDLQMILNGINNYKNPKLTRMLTFKFYMPKKATELKHLQCLEEELKPLEEVLNLAQSKNFHLRPRDLISNINVIVLELKGSETTFMCEYADETATIVEFLNRWITFCQNISESKYGPPCPPCPAPEAAGGPSVFLFPPKPKDTLMISRTPEVTCVVVDVSQEDPEVQFNWYVDGVEVHNAKTKPREEQFNSTYRVVSVLTVLHQDWLNGKEYKCKVSNKGLPSSIEKTISKAKGQPREPQVYTLPPCQEEMTKNQVSLWCLVKGFYPSDIAVEWESNGQPENNYKTTPPVLDSDGSFFLYSRLTVDKSRWQEGNVFSCSVMHEALHNHYTQKSLSLSLG
heavy: EIQLQQSGPELVKPGASVKVSCKASGYSFTDYNMYWVKQSHGESLEWIGYIDPYNGGTRYNQKFKGKATLTVDKSSSTAFMHLNSLTSEDSAVYYCARNGHWDGAWFAYWGQGTLVTVSAASTKGPSVFPLAPCSRSTSESTAALGCLVKDYFPEPVTVSWNSGALTSGVHTFPAVLQSSGLYSLSSVVTVPSSSLGTKTYTCNVDHKPSNTKVDKRVESKYGPPCPPCPAPEAAGGPSVFLFPPKPKDTLMISRTPEVTCVVVDVSQEDPEVQFNWYVDGVEVHNAKTKPREEQFNSTYRVVSVLTVLHQDWLNGKEYKCKVSNKGLPSSIEKTISKAKGQPREPQVCTLPPSQEEMTKNQVSLSCAVKGFYPSDIAVEWESNGQPENNYKTTPPVLDSDGSFFLVSRLTVDKSRWQEGNVFSCSVMHEALHNHYTQKSLSLSLG
light: DIQMNQSPSSLSASLGDTITITCHASQNINVWLSWYQQKPGNIPKLLIYKASNLHTGVPSRFSGSRSGTGFTLTISSLQPEDIATYYCHQGQSYPFTFGSGTKLEIKRTVAAPSVFIFPPSDEQLKSGTASVVCLLNNFYPREAKVQWKVDNALQSGNSQESVTEQDSKDSTYSLSSTLTLSKADYEKHKVYACEVTHQGLSSPVTKSFNRGEC
notes: IL-2 del STLT, S127N and I129S (glycosylation design); E44 format, IgG4 FALA
